Results: patent US20200405889A1 (WASHINGTON UNIVERSITY, published 2020)
Where no end group is shown, it is not given here. [ ]: non-standard residue; d: D form.

Biological target: mouse chemokine (C-C motif) receptor 2 (CCR2) (mouse, UniProt P51683 1-373)
Experiment: cell-based or functional assay

Chain of mouse chemokine (C-C motif) receptor 2 (CCR2) (P51683 whole entry): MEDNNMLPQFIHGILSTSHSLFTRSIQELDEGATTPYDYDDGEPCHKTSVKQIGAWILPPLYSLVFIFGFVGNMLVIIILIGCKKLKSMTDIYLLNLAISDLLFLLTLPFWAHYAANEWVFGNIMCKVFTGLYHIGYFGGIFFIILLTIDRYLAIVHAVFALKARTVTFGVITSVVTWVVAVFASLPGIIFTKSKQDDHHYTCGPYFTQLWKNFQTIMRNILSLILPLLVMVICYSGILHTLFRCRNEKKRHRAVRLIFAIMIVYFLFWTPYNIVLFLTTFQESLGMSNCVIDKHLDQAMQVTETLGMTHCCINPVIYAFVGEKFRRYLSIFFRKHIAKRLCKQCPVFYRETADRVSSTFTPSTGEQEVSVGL

graft/native lung uptake ratio, PET at 4 hours: 7.24 ratio
graft/native lung uptake ratio, PET at 24 hours: 8.44 ratio
graft/native lung uptake ratio, PET, printed 'At 4 hours after transplantation': 6.58 ratio
B1: ^64CuAuNCs-ECL1i (other)
peptide: [dL]G[dT][dF][dL][dK][dC]
modifications: not fully specified (residue 7); also: peptide joined via TA-PEG-Maleimide to a gold nanocluster doped with 64Cu, copy number not given here
